B1: Pistol ribozyme (parent)
chain: GGGUCGUUGUUCCAUAAUCGCGUGGAUAUGGCACGCAAGUUUCUACCGGGCACCGUAAAUGUCCGACUGGAGCCGUUCGGGCGGCUAUAAACAGACCUCAGGCCCGAAGCGUGGCGGCACCUGCCGCCGGUGGUAAAAAAGAUCGGAAGAGCACACGUCU

The variants in the data set derive from B1. Kind of data set: aptazyme ON/OFF ratio, guanine; higher = stronger switching; co-transcriptional cleavage with and without guanine.
Regarding GGGUCGUAUGUAGAUAAUCGCGUGGAUAUGGCACGCAAGUUUCUACCGGGCACCGUAAAUGUCCGACUGGAGCCGUUCGGGCGGCUAUAAACAGACCUCAGGCCCGAAGCGUGGCGGCACCUGCCGCCGGUGGUAAAAAAGAUCGGAAGAGCACACGUCU [U8A G9U U10G C12A C13G], the “aptazyme ON/OFF ratio” value worked out at 1.12.

In the case of GGGUCGCAUAGGGAUAAUCGCGUGGAUAUGGCACGCAAGUUUCUACCGGGCACCGUAAAUGUCCGACUGGAGCCGUUCGGGCGGCUAUAAACAGACCUCAGGCCCGAAGCGUGGCGGCACCUGCCGCCGGUGGUAAAAAAGAUCGGAAGAGCACACGUCU [U7C U8A G9U U10A U11G C12G C13G], the “aptazyme ON/OFF ratio” value was 1.26.

As for GGGUCGAUAAGAAAUAAUCGCGUGGAUAUGGCACGCAAGUUUCUACCGGGCACCGUAAAUGUCCGACUGGAGCCGUUCGGGCGGCUAUAAACAGACCUCAGGCCCGAAGCGUGGCGGCACCUGCCGCCGGUGGUAAAAAAGAUCGGAAGAGCACACGUCU [U7A G9A U10A U11G C12A C13A], the “aptazyme ON/OFF ratio” value came out at 1.16. GGGUCGAGAAACUAUAAUCGCGUGGAUAUGGCACGCAAGUUUCUACCGGGCACCGUAAAUGUCCGACUGGAGCCGUUCGGGCGGCUAUAAACAGACCUCAGGCCCGAAGCGUGGCGGCACCUGCCGCCGGUGGUAAAAAAGAUCGGAAGAGCACACGUCU [U7A U8G G9A U10A U11A C13U]: the “aptazyme ON/OFF ratio” value amounted to 1.17. Turning to GGGUCGACUACAAAUAAUCGCGUGGAUAUGGCACGCAAGUUUCUACCGGGCACCGUAAAUGUCCGACUGGAGCCGUUCGGGCGGCUAUAAACAGACCUCAGGCCCGAAGCGUGGCGGCACCUGCCGCCGGUGGUAAAAAAGAUCGGAAGAGCACACGUCU [U7A U8C G9U U10A U11C C12A C13A], the “aptazyme ON/OFF ratio” value is 1.17. Turning to GGGUCGUACAAGCAUAAUCGCGUGGAUAUGGCACGCAAGUUUCUACCGGGCACCGUAAAUGUCCGACUGGAGCCGUUCGGGCGGCUAUAAACAGACCUCAGGCCCGAAGCGUGGCGGCACCUGCCGCCGGUGGUAAAAAAGAUCGGAAGAGCACACGUCU [U8A G9C U10A U11A C12G], the “aptazyme ON/OFF ratio” value was determined as 1.37.

Turning to GGGUCGCUUUCGAAUAAUCGCGUGGAUAUGGCACGCAAGUUUCUACCGGGCACCGUAAAUGUCCGACUGGAGCCGUUCGGGCGGCUAUAAACAGACCUCAGGCCCGAAGCGUGGCGGCACCUGCCGCCGGUGGUAAAAAAGAUCGGAAGAGCACACGUCU [U7C G9U U11C C12G C13A], the “aptazyme ON/OFF ratio” value was 1.05. For GGGUCGCCUCUGGAUAAUCGCGUGGAUAUGGCACGCAAGUUUCUACCGGGCACCGUAAAUGUCCGACUGGAGCCGUUCGGGCGGCUAUAAACAGACCUCAGGCCCGAAGCGUGGCGGCACCUGCCGCCGGUGGUAAAAAAGAUCGGAAGAGCACACGUCU [U7C U8C G9U U10C C12G C13G], the “aptazyme ON/OFF ratio” value was found to be 1.11. For the variant GGGUCGUAAUUAAAUAAUCGCGUGGAUAUGGCACGCAAGUUUCUACCGGGCACCGUAAAUGUCCGACUGGAGCCGUUCGGGCGGCUAUAAACAGACCUCAGGCCCGAAGCGUGGCGGCACCUGCCGCCGGUGGUAAAAAAGAUCGGAAGAGCACACGUCU [U8A G9A C12A C13A], the “aptazyme ON/OFF ratio” value amounted to 1.3. On to GGGUCGUCCCCCGAUAAUCGCGUGGAUAUGGCACGCAAGUUUCUACCGGGCACCGUAAAUGUCCGACUGGAGCCGUUCGGGCGGCUAUAAACAGACCUCAGGCCCGAAGCGUGGCGGCACCUGCCGCCGGUGGUAAAAAAGAUCGGAAGAGCACACGUCU [U8C G9C U10C U11C C13G], for which the “aptazyme ON/OFF ratio” value is 1.04. On to GGGUCGGUCUUAAAUAAUCGCGUGGAUAUGGCACGCAAGUUUCUACCGGGCACCGUAAAUGUCCGACUGGAGCCGUUCGGGCGGCUAUAAACAGACCUCAGGCCCGAAGCGUGGCGGCACCUGCCGCCGGUGGUAAAAAAGAUCGGAAGAGCACACGUCU [U7G G9C C12A C13A], for which the “aptazyme ON/OFF ratio” value was 1.42. As for GGGUCGUCAUGCUAUAAUCGCGUGGAUAUGGCACGCAAGUUUCUACCGGGCACCGUAAAUGUCCGACUGGAGCCGUUCGGGCGGCUAUAAACAGACCUCAGGCCCGAAGCGUGGCGGCACCUGCCGCCGGUGGUAAAAAAGAUCGGAAGAGCACACGUCU [U8C G9A U11G C13U], the “aptazyme ON/OFF ratio” value came out at 1.15. For the variant GGGUCGGGAGAUCAUAAUCGCGUGGAUAUGGCACGCAAGUUUCUACCGGGCACCGUAAAUGUCCGACUGGAGCCGUUCGGGCGGCUAUAAACAGACCUCAGGCCCGAAGCGUGGCGGCACCUGCCGCCGGUGGUAAAAAAGAUCGGAAGAGCACACGUCU [U7G U8G G9A U10G U11A C12U], the “aptazyme ON/OFF ratio” value amounted to 1.13.

With GGGUCGUUAGGUGAUAAUCGCGUGGAUAUGGCACGCAAGUUUCUACCGGGCACCGUAAAUGUCCGACUGGAGCCGUUCGGGCGGCUAUAAACAGACCUCAGGCCCGAAGCGUGGCGGCACCUGCCGCCGGUGGUAAAAAAGAUCGGAAGAGCACACGUCU [G9A U10G U11G C12U C13G], the “aptazyme ON/OFF ratio” value worked out at 1.19. Next, GGGUCGUUCGCAGAUAAUCGCGUGGAUAUGGCACGCAAGUUUCUACCGGGCACCGUAAAUGUCCGACUGGAGCCGUUCGGGCGGCUAUAAACAGACCUCAGGCCCGAAGCGUGGCGGCACCUGCCGCCGGUGGUAAAAAAGAUCGGAAGAGCACACGUCU [G9C U10G U11C C12A C13G]: 1.15; GGGUCGUGUGGAGAUAAUCGCGUGGAUAUGGCACGCAAGUUUCUACCGGGCACCGUAAAUGUCCGACUGGAGCCGUUCGGGCGGCUAUAAACAGACCUCAGGCCCGAAGCGUGGCGGCACCUGCCGCCGGUGGUAAAAAAGAUCGGAAGAGCACACGUCU [U8G G9U U10G U11G C12A C13G]: 1.08; GGGUCGUGUGACAAUAAUCGCGUGGAUAUGGCACGCAAGUUUCUACCGGGCACCGUAAAUGUCCGACUGGAGCCGUUCGGGCGGCUAUAAACAGACCUCAGGCCCGAAGCGUGGCGGCACCUGCCGCCGGUGGUAAAAAAGAUCGGAAGAGCACACGUCU [U8G G9U U10G U11A C13A]: 1.01. Regarding GGGUCGAUAACGGAUAAUCGCGUGGAUAUGGCACGCAAGUUUCUACCGGGCACCGUAAAUGUCCGACUGGAGCCGUUCGGGCGGCUAUAAACAGACCUCAGGCCCGAAGCGUGGCGGCACCUGCCGCCGGUGGUAAAAAAGAUCGGAAGAGCACACGUCU [U7A G9A U10A U11C C12G C13G], the “aptazyme ON/OFF ratio” value worked out at 1.42.

Source of the values: the RNAGym collection of RNA variant scans (doi:10.1021/acssynbio.7b00057).
